Assay [1] addresses recombinant human BAFF-Fc (Sino Biological) (human) (UniProt Q9Y275). As to the kind of experiment: cell-based or functional assay.
Assay [2] concerns the target T1, recombinant mouse BAFF (R&D Systems) (mouse, UniProt Q9WU72 127-309). The assay is described as follows: cell-based or functional assay.
Assay [3] concerns the target T2, human BAFF (recombinant) (human, UniProt Q9Y275 134-285).
T2 construct: also called hBAFF; recombinant BAFF (Sino biologicals)
The assay is described as follows: ELISA on coated human BAFF. A general note: An ELISA detects its analyte on a solid surface through an enzyme-linked reagent.

Assay [4] deals with T2, human BAFF (recombinant). The assay is described as follows: ELISA on coated human BAFF (legend of FIG. 18; rounded form of 0.632 nM). The protocol:
Based on the results of Example 11, the A07 anti-BAFF molecule was reformatted as a mouse Fc fusion protein with effector function intact. The protein was expressed and purified as described above and EC50 binding to human BAFF was assessed by ELISA as previously described. […] Mice are then injected i.p. with 100 μg of A07-Fc, 5A7-Fc, or blank control (PBS) on day 0 and again on day 4, 8, and 12 before being be culled on day 15. B cell subset populations in the spleen are analysed by flow cytometry as described above and improvements in B cell depletion are anticipated.

In assay [5] the target is T3, recombinant human BAFF-Fc (Sino Biological) (human, UniProt Q9Y275 134-285). The assay is described as follows: cell-based or functional assay.
T3 sequence (Q9Y275 134-285): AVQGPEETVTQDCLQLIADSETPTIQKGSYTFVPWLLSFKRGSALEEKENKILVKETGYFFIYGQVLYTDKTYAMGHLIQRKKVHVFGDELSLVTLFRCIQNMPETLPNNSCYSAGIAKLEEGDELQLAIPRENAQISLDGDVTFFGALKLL
Assay [6] concerns the target T4, APRIL (Sigma) (UniProt O75888 105-250, limits assumed).
T4 sequence (looked up): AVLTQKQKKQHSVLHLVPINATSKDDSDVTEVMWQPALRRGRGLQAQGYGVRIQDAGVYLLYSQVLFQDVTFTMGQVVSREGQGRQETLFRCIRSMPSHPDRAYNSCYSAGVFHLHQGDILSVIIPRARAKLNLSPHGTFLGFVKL
As to the kind of experiment: ELISA, periplasmic extract on coated APRIL (1 µg/mL), anti-FLAG-HRP. The method, then:
Clones blocking the interaction between BAFF and its three receptors were tested for their ability to cross-react with BAFF's closest related protein, APRIL. Clones were grown in a 96 well format, periplasmic fraction was extracted by osmotic shock as previously described and directly used in a binding ELISA. Nunc Maxisorp 96 well plates were coated at 1 μg/mL with either BAFF-Fc (Sino Biological), HSA (Sigma), or APRIL (Sigma) and periplasmic fraction, pre-blocked in PBS-0.1% Tween+2.5% Milk, was exposed to the coated surface. After washing in PBS-0.1% Tween, bound VNARs were detected using a peroxidase-conjugated anti-FLAG antibody (Sigma). Absorbance at 450 nm was recorded using an Envision multiwell reader (Perkin Elmer).

Assay [7] concerns the target T3, recombinant human BAFF-Fc (Sino …). As to the kind of experiment: blocking ELISA, VNAR diluted with 1.14 nM BAFF-Fc; binding of BAFF-Fc to coated BAFF-R extracellular domain.
In assay [8] the target is T5, human serum albumin (Sigma) (human, UniProt P02768 25-609).
T5 construct: Negative control coat; also called HSA
T5 sequence (P02768 25-609 limits assumed): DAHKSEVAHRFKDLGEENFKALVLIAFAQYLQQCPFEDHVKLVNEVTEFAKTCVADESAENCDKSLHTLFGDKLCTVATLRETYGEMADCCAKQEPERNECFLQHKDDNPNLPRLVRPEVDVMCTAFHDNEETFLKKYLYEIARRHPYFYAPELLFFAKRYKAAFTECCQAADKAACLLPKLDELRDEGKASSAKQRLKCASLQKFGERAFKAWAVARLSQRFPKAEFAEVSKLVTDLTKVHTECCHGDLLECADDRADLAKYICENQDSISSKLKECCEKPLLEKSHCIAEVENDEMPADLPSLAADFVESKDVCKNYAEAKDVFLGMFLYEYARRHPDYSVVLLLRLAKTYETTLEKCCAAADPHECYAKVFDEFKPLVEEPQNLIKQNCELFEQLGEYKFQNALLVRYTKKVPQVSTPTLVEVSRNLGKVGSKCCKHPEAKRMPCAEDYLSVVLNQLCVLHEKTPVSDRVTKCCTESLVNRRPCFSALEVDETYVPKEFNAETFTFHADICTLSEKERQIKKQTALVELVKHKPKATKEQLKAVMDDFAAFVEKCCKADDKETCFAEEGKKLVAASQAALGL
The assay is described as follows: ELISA, periplasmic extract on coated HSA (1 µg/mL), anti-FLAG-HRP.

In assay [9] the target is T3, recombinant human BAFF-Fc (Sino …). As to the kind of experiment: blocking ELISA, VNAR diluted with 0.5 nM BAFF-Fc; binding of BAFF-Fc to coated BCMA. The protocol: (§1) The pre-blocked proteins were then exposed to Nunc Maxisorp 96 well plates which were coated at 1 μg/mL with the recombinant human TACI or BCMA (Peprotech), preblocked in (PBS-0.1% Tween+2.5% Milk). After washing in PBS-0.1% Tween, BAFF bound to its receptor was detected via its Fc moiety using a peroxidase-conjugated anti-human Fc (Sigma). Absorbance at 450 nm was recorded using an Envision multiwell reader (Perkin Elmer) and IC50 values were calculated by fitting the curves (non-linear regression) using GraphPad Prism®. The results are shown in FIG. 15 and the fitted IC50 values are tabulated below.

For assay [10] the target is unchanged. As to the kind of experiment: blocking ELISA, binding of BAFF-Fc to coated BR3 (BAFF-R); repeats Table 2.
For assay [11] the target is unchanged. As to the kind of experiment: ELISA, purified monomeric VNAR on coated BAFF-Fc, anti-FLAG detection.
For assay [12] the target is unchanged. The assay is described as follows: cell-based or functional assay. This is another data set of the same source.
The target in assay [13] is T1, recombinant mouse BAFF (R&D Systems). As to the kind of experiment: Mouse cross-reactivity grade (binds to both human and mouse BAFF); assay not described.
Assay [14] has as its target T3, recombinant human BAFF-Fc (Sino …). The assay is described as follows: blocking ELISA, VNAR diluted with 0.5 nM BAFF-Fc; binding of BAFF-Fc to coated TACI. The method, then: as §1
For assay [15] the target is unchanged. As to the kind of experiment: blocking ELISA: periplasmic extract + 1.14 nM BAFF-Fc on coated BAFF-R extracellular domain, anti-human Fc-HRP. The protocol: The ability of selected BAFF-specific VNARs to prevent the binding of BAFF to its receptor (BAFF-R) was tested in a blocking ELISA format. Briefly, selected clones were grown in 96 deep-well plates and the periplasmic fraction was extracted as described above. Nunc Maxisorp 96-well plates were coated at 1 μg/mL with the BAFF-R extracellular domain (Peprotech) and blocked in PBS-0.1% Tween+2.5% milk. The periplasmic fraction was also pre-blocked in PBS-0.1% Tween-20+2.5% milk in the presence of 1.14 nM BAFF-Fc (Sino Biological) before being exposed to the BAFF-R coated surface. After washing in PBS-0.1% Tween-20, BAFF bound to its receptor was detected via its Fc moiety using a peroxidase-conjugated anti-human Fc (Sigma). Absorbance at 450 nm was recorded using an Envision multiwell reader (Perkin Elmer) (FIG. 8) and clones reducing the amount of BAFF bound to its receptor by more than 50% were selected as specific blockers.

T1 sequence (Q9WU72 127-309 limits assumed): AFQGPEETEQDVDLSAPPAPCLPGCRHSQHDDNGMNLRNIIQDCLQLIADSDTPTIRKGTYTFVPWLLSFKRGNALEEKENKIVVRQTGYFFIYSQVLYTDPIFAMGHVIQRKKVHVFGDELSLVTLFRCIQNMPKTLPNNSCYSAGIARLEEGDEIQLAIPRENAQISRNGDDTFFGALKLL
T2 sequence (Q9Y275 134-285 limits assumed): as the sequence (Q9Y275 134-285) above
recombinant human BAFF-Fc (Sino Biological) (human), sequence (Q9Y275 134-285): as above

For “BAFFr (positive control, Example 10) (from UniProt Q96RJ3 1-76) (receptor)”, the IC50 (human), proliferation of mouse splenic B cells in [1] was determined as 66.2 nM. The IC50 (mouse), proliferation of mouse splenic B cells in assay [2] amounted to 7.06 nM.

B1: A07 formatted as a mouse Fc fusion protein with effector function intact (Fc fusion)
chain: AQAAARVDQTPQTITKETGESLTINCVLRDSNCALSNLYWYRKKSGSTNEESISLGGRYVETVNSGSKSFSLRINDLTVEDSGTYRCKVQLPYDPLTKECILGRMDVYGDGTAVTVNAASGAHHHHHHGADYKDDDDK
notes: also called A07-mFc; not shown: mouse Fc with effector function
Usually EC50 stands for the concentration needed to bring the measured effect to its halfway point. As to B1, the EC50 is approximately 0.632 nM in [3] and approximately 0.6 nM in assay [4].

B2: A07 formatted as a human Fc fusion (Fc fusion, not shown: a dimerising Fc or GST)
chain: AQAAARVDQTPQTITKETGESLTINCVLRDSNCALSNLYWYRKKSGSTNEESISLGGRYVETVNSGSKSFSLRINDLTVEDSGTYRCKVQLPYDPLTKECILGRMDVYGDGTAVTVN
Turning to B2, the “IC50 (mouse), proliferation of mouse splenic B cells” value in assay [2] turned out to be 1.95 nM. In addition, the “IC50 (human), proliferation of mouse splenic B cells” value in assay [5] amounted to 2.48 nM.

B3: ID2-101A09 (VNAR)
VNAR: AARVDQTPQTITKETGESLTINCVLRDNNCALSTTYWYRKKSGSTNEESISKGGRYVETVNSGSKSFSLRINDLTVEDSGTYRCKVREDPLMCRYYLDRYRDVYGGGTVVTVNA
notes: Nurse shark VNAR single domain, monomer
The IC50 is the concentration at which inhibition is half-maximal. As to B3, the binding result in [6] is recorded as “no binding”; in [8], “no binding”; in assay [13], “binds”. Also, the IC50 in [7] is 9.7 nM; in [9], 23.6 nM; in assay [10], 9.7 nM; in assay [14], 27.2 nM. The EC50 in assay [11] amounted to 4.9 nM. In assay [12], the “CELLULAR IC50” value was 215 nM.

B4: ID2-101B08 (VNAR)
VNAR: AARVDQTPQTITKETGESLTINCVLRDSNCALSSTLWYRTKSGSRNEESISKGGRYVETVNSGSKSFSLKINDLTVEDSGTYRCKVPRDLLLCKRPRARLPDVYGGGTAVTVNA
notes: Nurse shark VNAR single domain, monomer in periplasmic extract
With B4, the binding result in [15] was “binds”.

B5: B07 formatted as a human Fc fusion (Fc fusion, not shown: a dimerising Fc or GST)
chain: AQAAARVDQTPRSVTKETGESLTINCVLRDSICALSSTHWYRKKSGSTNEESISKGGRYVETVNSGSKSFSLRINDLTVEDSGTYRCKVHGGRSTGLCGDVLLAGDVYGGGTAVTVN
As for B5, the “IC50 (mouse), proliferation of mouse splenic B cells” value in [2] was 604 nM. For the same molecule, in assay [5], the “IC50 (human), proliferation of mouse splenic B cells” value amounted to 3.79 nM.

(Values after US20200024354A1 (OSSIANIX, published 2020).)
